These results are taken from patent publication US20250161474A1, “ANTIBODY-DRUG CONJUGATES TARGETING EGFR/C-MET AND PREPARATION METHODS AND USES THEREOF” (Sichuan Kelun-Biotech Biopharmaceutical Co., Ltd., priority 2023, published 2025).

Series [1] in a line: Hydrophilicity of ADCs (HIC, TSKgel Butyl-NPR). It is filed as physicochemical. As to conditions: for Hydrophobicity value: (RT sample − RT hydrophilic control)/(RT hydrophobic control − RT hydrophilic control), Tagitanlimab = 0, Sacituzumab = 1; for Retention time: HIC, TSKgel Butyl-NPR column, 30°C, smaller = more hydrophilic. The procedure: The column temperature was 30° C., the detection wavelength was 280 nm, and the flow rate was: 0.5 mL/min, mobile phase A: 1.5 mol/L (NH4)2SO4; mobile phase B: 25 mmol/L Na2HPO4, pH=7.0, 25% isopropanol alcohol (IPA). For analysis, a test sample of ADC was diluted to 1 mg/mL solution using the diluent 0.75 mol/L (NH4)2SO4 to provide a test solution. The hydrophilic control antibody was Tagitanlimab and the hydrophobic control antibody was Sacituzumab. Control antibodies were produced by Sichuan Kelun-Biotech Biopharmaceutical Co., Ltd. using the diluent to make a 1 mg/mL test solution as the system suitability solution. […] After testing, the hydrophobicity value of the test sample was calculated based on the control sample. The calculation formula was: (Retention time of test sample−Retention time of hydrophilic control)/(Retention time of hydrophobic control−Retention time of hydrophilic control).

A short description of series [2]: Hydrophilicity of bispecific antibodies (HIC, TSKgel Butyl-NPR). Type of series: physicochemical. The settings on record: for Hydrophobicity value: (RT sample − RT hydrophilic control)/(RT hydrophobic control − RT hydrophilic control), Tagitanlimab = 0, Sacituzumab = 1; for Retention time: HIC, TSKgel Butyl-NPR column, 30°C, smaller = more hydrophilic. As for the experimental part: Column temperature: 30° C., detection wavelength: 280 nm, flow rate: 0.5 ml/min, mobile phase A: 1.5 mol/L (NH4)2SO4, mobile phase B: 25 mmol/L Na2HPO4, pH=7.0, 25% IPA. A suitable amount of the test sample was diluted with diluent (0.75 mol/L (NH4)2SO4) to make a solution of 1.0 mg/ml as the test sample solution. The control antibodies were Tagitanlimab as a hydrophilic control (disclosed in WO2017148424) and Sacituzumab as a hydrophobic control (disclosed in WO2019114666). (Both antibodies are produced by Kelun-Biotech.) Each of the control antibodies were diluted with the diluent to make a solution of 1.0 mg/ml as the system suitability solution. About […] of sample was injected and analyzed in gradient elution: 0-3 min, maintaining mobile phase A of 95% and mobile phase B of 5%; 3-40 min, mobile phase B from 5% to 100%; 40-45 min, maintaining mobile phase A of 95% and mobile phase B of 5%. The hydrophobicity value of the test sample was calculated according to the control sample with the formula: (retention time of the test sample−retention time of the hydrophilic control)/(retention time of the hydrophobic control−retention time of the hydrophilic control), and the smaller the retention time and hydrophobicity value, the better the hydrophilicity of the antibody.

Regarding Sacituzumab, the Hydrophobicity value in series [1] and in series [2] was 1.00 in each case. In addition, the Retention time in series [1] is 19.00 min; in series [2], 19.001 min.

In series [1], Tagitanlimab displayed a Hydrophobicity value of 0.00 and a Retention time of 11.01 min. In series [2], this substance returned a Hydrophobicity value of 0.00 and a Retention time of 11.009 min.
